The record followed here is patent publication US20250115669A1, “FGFR1/KLB Targeting Agonistic Antigen-Binding Proteins and Conjugates Thereof with GLP-1R Agonistic Peptides” (SANOFI, priority 2020, published 2025).

Series [1] has as its target cynomolgus monkey beta-Klotho. The series is described as follows: SPR binding affinity and kinetics to cynomolgus monkey beta-Klotho (Biacore 8K, anti-human Fc capture). Also noted: species or system Cynomolgus monkey (Macaca fascicularis). Conditions: 1:1 binding model, read-out: KD monkey KLB. The protocol:
Binding affinity and kinetics were measured on a Biacore 8K instrument (GE Healthcare). For the affinity capture of the diluted mAb sample, an anti-human Fc antibody (human antibody capture kit, GE Healthcare) was immobilized on all eight channels of a series S CM5 sensor chip (GE Healthcare) to approximately 10.000 RU. The anti-beta-Klotho antibodies were diluted into HBS-EP+ assay buffer (GE Healthcare) to 0.04 μg/mL. The antibodies were injected in the sample compartment, whereas the reference compartment was used without captured antibody. […] For the antigen inject the flow rate was adjusted to 60 μL/min with an association time of 180 sec and a dissociation time of 1800 sec. The maximum binding signal of beta-Klotho was in the range of 30 RU. At the end of each cycle an inject of regeneration solution, supplied with human antibody capture kit (GE Healthcare), supplemented with 10% non-specific binding reducer (GE Healthcare), for 1 min at 30 μL/min to remove antibody and antigen was performed. Binding kinetics data were evaluated with a 1:1 binding model using the Biacore 8K Evaluation Software version 1.1.1.7442 (GE Healthcare).
For interaction analysis with human beta-klotho, mAbs were captured via an anti-human Fc antibody immobilized on a series S CM5 sensor chip (human antibody capture kit, GE Healthcare). […] Binding kinetics data were evaluated with a 1:1 binding model using the Biacore 8K Evaluation Software version 1.1.1.7442 (GE Healthcare). For interaction analysis with Cynomolgus monkey beta-klotho, mAbs were captured via an anti-human Fc antibody immobilized on a series S CM5 sensor chip (human antibody capture kit, GE Healthcare). […] Binding kinetics data were evaluated with a 1:1 binding model using the Biacore 8K Evaluation Software version 1.1.1.7442 (GE Healthcare). Exemplary sensorgrams for the interaction are shown in FIG. 7 (human KLB) and 8 (monkey KLB), as well as in Table G.
On the technique in general: Surface plasmon resonance follows binding to a sensor surface in real time, without labels.

The next series concerns the target T1, human beta-Klotho (Homo sapiens, UniProt Q86Z14).
T1 sequence (Q86Z14 1-1044): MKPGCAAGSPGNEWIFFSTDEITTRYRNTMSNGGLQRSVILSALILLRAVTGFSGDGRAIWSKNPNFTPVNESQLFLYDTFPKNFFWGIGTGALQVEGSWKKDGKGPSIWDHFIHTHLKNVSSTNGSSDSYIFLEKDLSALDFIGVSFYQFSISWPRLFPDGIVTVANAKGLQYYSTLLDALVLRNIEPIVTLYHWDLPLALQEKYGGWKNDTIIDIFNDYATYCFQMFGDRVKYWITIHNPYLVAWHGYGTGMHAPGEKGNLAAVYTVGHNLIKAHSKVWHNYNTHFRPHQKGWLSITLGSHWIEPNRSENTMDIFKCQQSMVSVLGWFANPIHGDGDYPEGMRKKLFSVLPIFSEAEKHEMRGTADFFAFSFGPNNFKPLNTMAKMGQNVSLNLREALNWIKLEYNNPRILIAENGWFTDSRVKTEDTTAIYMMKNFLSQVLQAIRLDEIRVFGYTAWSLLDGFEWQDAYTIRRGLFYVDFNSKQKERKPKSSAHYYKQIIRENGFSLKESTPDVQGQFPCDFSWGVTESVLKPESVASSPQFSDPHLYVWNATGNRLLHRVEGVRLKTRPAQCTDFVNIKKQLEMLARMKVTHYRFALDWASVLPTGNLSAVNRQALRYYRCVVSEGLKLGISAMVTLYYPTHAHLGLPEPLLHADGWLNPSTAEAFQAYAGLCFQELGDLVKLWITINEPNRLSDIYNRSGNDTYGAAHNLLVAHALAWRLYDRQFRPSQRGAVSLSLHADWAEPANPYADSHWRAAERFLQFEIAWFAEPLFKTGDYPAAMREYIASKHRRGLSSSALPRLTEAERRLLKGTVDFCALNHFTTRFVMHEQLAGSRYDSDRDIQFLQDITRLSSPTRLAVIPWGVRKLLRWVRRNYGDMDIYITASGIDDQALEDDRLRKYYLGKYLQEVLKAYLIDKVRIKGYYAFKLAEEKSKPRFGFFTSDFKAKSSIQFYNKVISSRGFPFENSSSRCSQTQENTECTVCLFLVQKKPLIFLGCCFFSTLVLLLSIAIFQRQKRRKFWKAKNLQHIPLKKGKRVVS
The series is described as follows: SPR analysis of the active fraction of stressed antibodies. The class given is binding. As to conditions: 21 days. The protocol: Analysis of the active fraction of stressed antibodies was performed by SPR using the same Fc capture assay set up as described above for the affinity determination. In this case the association and dissociation times for human beta-Klotho were set to 240 sec and 300 sec, respectively. The active fraction of the samples was calculated as the ratio of binding signal for human beta-Klotho and the Fc capture signal of the antibody, normalized to the active fraction of the unstressed control samples. Mean values from three experiments were calculated.

A short description of series [2]: Dynamic light scattering (DLS) and diffusion interaction parameter (kD). The series is classed as physicochemical. The protocol:
Dynamic light scattering (DLS) was performed using a DynaPro Plate Reader (Wyatt Technology). The samples were measured in 384 well assay plates (Corning) at 25° C. Data were evaluated by cumulant fitting using Dynamics Software version 7.7.0.125 (Wyatt Technology).
Colloidal stability of the samples was assessed by measuring the diffusion interaction parameter (kD) at 20° C. using a DynaPro Plate Reader (Wyatt Technology). Before the measurements the samples were buffer exchanged against 5 L of 10 mmol/L Histidine pH 6.0 by dialysis for 20 h with one buffer change using 1 mL Float-A-Lyzer G2 devices with 3.5-5 kDa cut-off (Spectrum Labs). A dilution series from 1 to 4.5 mg/mL, in 0.5 mg/mL increments, was prepared in 10 mmol/L Histidine pH 6.0 and measured in 384 well assay plates (Corning).

Series [3] in a line: Intact mass spectrometry (IMS). The series is classed as physicochemical. As to conditions: for intact mass Identity confirmed / intact mass Peak intensity post stress: 21 days. The protocol: Protein integrity was analyzed by LC-MS. […] Reversed phase (RP) chromatography was done using a PLRP-S 1000A 5 μm, 50×2.1 mm (Agilent) with a guard column PLRP-S 300A 5 μm, 3×5 mm (Agilent) at 200 μL/min and 80° C. column temperature. Eluents were buffer A containing LC water and 0.1% formic acid as well as buffer B containing 90% acetonitrile, 10% LC water and 0.1% formic acid. 1 μg of protein was injected onto the column and eluted using linear gradient from 0 to 17 minutes with increasing acetonitrile concentration. Data was analyzed using MassHunter Bioconfirm B.06 (Agilent). Molecular masses were calculated based on the amino acid sequences of the proteins using GPMAW software version 10 (Lighthouse data).

For the substance “Ab0430: IgG1 NNAS; 16H7 VL (N25S, D49E, D50E, D91E, N93E); 16H7 VH (M34V, I83T, D109E); HC SEQ ID NO: 43, LC SEQ ID NO: 50”, the Kd (in general, the concentration at which binding is half-saturated) in series [1] was 2.96 nM. Moreover, the “SPR rel. active fraction” value amounted to 94% with human beta-Klotho (pH 5, 40° C.); 92% in the series with human beta-Klotho (pH 6, 40° C.); 75% with human beta-Klotho (pH 8, 40° C.). In addition, the “Homogeneity DLS Hydrodynamic radius” value in series [2] turned out to be 5.4 nm. In addition, the “DLS Hydrodynamic radius” value is on record as 5.4 nm in series [2] (pH 5, 40° C., d 21); 5.4 nm in series [2] (pH 5, d 0); 5.4 nm in series [2] (pH 6, 40° C., d 21); 5.4 nm in series [2] (pH 6, d 0); 6.3 nm in series [2] (pH 8, 40° C., d 21); 5.4 nm in series [2] (pH 8, d 0). Also, the “Identity, correct pairing, intact mass, Identity confirmed” value in series [3] is reported as “Yes”. In addition, the “intact mass Identity confirmed” value is on record as “Yes” in series [3] (pH 5, 40° C.); “Yes” in series [3] (pH 6, 40° C.); “Yes” in series [3] (pH 8, 40° C.). The “intact mass Peak intensity post stress” value in series [3] (pH 5, 40° C.) turned out to be 80%; in series [3] (pH 6, 40° C.), 81%; in series [3] (pH 8, 40° C.), 54%.
